We go through 21 molecules from paper doi:10.1101/2024.05.10.593590.

Among the targets are U-CTD (hnRNP U RBD) (human, UniProt Q00839 673-825); U(702-777) (human, UniProt Q00839 702-777); U(702-825) (human, UniProt Q00839); U(702-793) (human, UniProt Q00839 702-793); U(702-809) (human, UniProt Q00839 702-809); U(702-761) (human, UniProt Q00839 702-761).
Common to all, as to test: fluorescence anisotropy
On the technique in general: In fluorescence polarisation assays a small probe gives low polarisation when free and higher when bound to something large.

The target in another data set is T1, U(702-745) (human, UniProt Q00839 702-745).
T1 chain: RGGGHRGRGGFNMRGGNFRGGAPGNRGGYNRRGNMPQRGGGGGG

Data set [1] addresses T2, RGG1 (minimal first RGG/RG motif) (human, UniProt Q00839 702-745).
T2 chain: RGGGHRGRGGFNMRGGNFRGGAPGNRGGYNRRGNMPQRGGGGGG

U(702-793), sequence (Q00839 702-793): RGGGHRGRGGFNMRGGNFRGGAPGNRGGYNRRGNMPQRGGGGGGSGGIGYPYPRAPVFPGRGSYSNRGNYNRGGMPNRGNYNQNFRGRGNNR
U(702-777), sequence (Q00839 702-777): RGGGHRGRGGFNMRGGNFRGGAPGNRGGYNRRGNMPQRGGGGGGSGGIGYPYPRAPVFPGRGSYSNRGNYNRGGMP
U-CTD (hnRNP U RBD), sequence (Q00839 673-825): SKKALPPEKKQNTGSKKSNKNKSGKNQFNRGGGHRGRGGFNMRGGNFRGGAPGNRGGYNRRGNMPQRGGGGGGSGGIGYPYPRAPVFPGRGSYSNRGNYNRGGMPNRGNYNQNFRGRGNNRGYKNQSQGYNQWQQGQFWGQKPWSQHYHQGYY
U(702-809), sequence (Q00839 702-809): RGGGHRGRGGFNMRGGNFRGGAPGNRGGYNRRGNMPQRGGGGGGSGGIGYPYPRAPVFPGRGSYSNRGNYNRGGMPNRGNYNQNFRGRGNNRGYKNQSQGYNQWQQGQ
U(702-825), sequence (Q00839 702-825): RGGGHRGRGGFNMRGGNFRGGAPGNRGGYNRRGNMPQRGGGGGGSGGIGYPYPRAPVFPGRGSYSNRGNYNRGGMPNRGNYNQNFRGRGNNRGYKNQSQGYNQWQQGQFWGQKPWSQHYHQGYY

B1: MTRNR2L6 antisense 300 nt (ssRNA)
RNA: GUUGUUUUAAAAAGACUUAUAGAUGGGAGGUGUGGAGGACUUAAAUACACAUGUACCAGACCUGGCUUGCUCCGGUCUGAACUCAGACCACGUAGGACUUUAAUCAUUGAACAAAUGAACCCUUGAUAGCAGCUACACCAUUAGGAUGUCCUGAUCCAACAUCGAGGUCGUAAACCCUAUUGUCAAUAUGGACUCUAGAAUAGGAUUGCGCUGUUAUCCCUAGGGUAACUUGUUCCGUUGAUCAAAUUAUUGGGUCAAUAUAUGUAUAGUAAUUCGCUUAAACUUGUUUAGUCUUAGCAC
Take B1: the “apparent K (half saturation)” value with U-CTD (hnRNP U RBD) stood at 110 ± 10 nM.

B2: MTRNR2L6 sense 250 nt (ssRNA)
RNA: GUGCUAAGACUAAACAAGUUUAAGCGAAUUACUAUACAUAUAUUGACCCAAUAAUUUGAUCAACGGAACAAGUUACCCUAGGGAUAACAGCGCAAUCCUAUUCUAGAGUCCAUAUUGACAAUAGGGUUUACGACCUCGAUGUUGGAUCAGGACAUCCUAAUGGUGUAGCUGCUAUCAAGGGUUCAUUUGUUCAAUGAUUAAAGUCCUACGUGGUCUGAGUUCAGACCGGAGCAAGCCAGGUCUGGUACAU
On to B2, for which the “apparent K (half saturation)” value with U-CTD (hnRNP U RBD) amounted to 100 ± 10 nM.

B3: MTRNR2L6 sense 300 nt (ssRNA)
RNA: GUGCUAAGACUAAACAAGUUUAAGCGAAUUACUAUACAUAUAUUGACCCAAUAAUUUGAUCAACGGAACAAGUUACCCUAGGGAUAACAGCGCAAUCCUAUUCUAGAGUCCAUAUUGACAAUAGGGUUUACGACCUCGAUGUUGGAUCAGGACAUCCUAAUGGUGUAGCUGCUAUCAAGGGUUCAUUUGUUCAAUGAUUAAAGUCCUACGUGGUCUGAGUUCAGACCGGAGCAAGCCAGGUCUGGUACAUGUGUAUUUAAGUCCUCCACACCUCCCAUCUAUAAGUCUUUUUAAAACAAA
In the case of B3, the “apparent K (half saturation)” value with U-CTD (hnRNP U RBD) is 110 ± 10 nM.

B4: Antisense MTRNR2L6 (structured_RNA)
RNA: GGCUACACCAUUAGGAUGUCCUGAUCCAACAUCGAGGUCGUAAACCCUAUUGUCAAUAUGGACUCUAGAAUAGGAUUGCGCUGUUAUCCCUAGGGUAACUUGUUCCGUUGAUCAAAUUAUUGGGUCAAUAUAUGUAUAG
Usually Kd stands for the free concentration of one partner at which half of the binding sites on the other are occupied at equilibrium, for simple one-to-one binding. Consider B4, for which the Kd with U(702-777) came to 3900 ± 900 nM; with U(702-825), 450 ± 10 nM; with U(702-793), 1200 ± 100 nM; with U(702-809), 810 ± 60 nM.
Consider GGGGUCAAUAUAUGUAUAGUAAUUCGCUUAAACUUGUUUAGUCUUAGCAC (ssRNA) [MTRNR2L6 antisense 50 nt], for which, in the data set with U-CTD (hnRNP U RBD), the “apparent K (half saturation)” value stood at 480 ± 40 nM.

B5: MTRNR2L6 sense 100 nt (ssRNA)
RNA: GUGCUAAGACUAAACAAGUUUAAGCGAAUUACUAUACAUAUAUUGACCCAAUAAUUUGAUCAACGGAACAAGUUACCCUAGGGAUAACAGCGCAAUCCUA
Take B5: the “apparent K (half saturation)” value with U-CTD (hnRNP U RBD) was 150 ± 20 nM.

B6: MTRNR2L6 antisense 100 nt (ssRNA)
RNA: GAGGAUUGCGCUGUUAUCCCUAGGGUAACUUGUUCCGUUGAUCAAAUUAUUGGGUCAAUAUAUGUAUAGUAAUUCGCUUAAACUUGUUUAGUCUUAGCAC
Regarding B6, the “apparent K (half saturation)” value in the data set with U-CTD (hnRNP U RBD) came to 280 ± 20 nM.

B7: MTRNR2L6 antisense 75 nt (ssRNA)
RNA: GAACUUGUUCCGUUGAUCAAAUUAUUGGGUCAAUAUAUGUAUAGUAAUUCGCUUAAACUUGUUUAGUCUUAGCAC
For the molecule B7, in the data set with U-CTD (hnRNP U RBD), the “apparent K (half saturation)” value was 410 ± 30 nM.
Same read-out and setting: the result for GUGCUAAGACUAAACAAGUUUAAGCGAAUUACUAUACAUAUAUUGACCCA (ssRNA) [MTRNR2L6 sense 50 nt] reads 1000 ± 100 nM.

B8: Syncrip (structured_RNA)
RNA: GAGGGAGGGGAGGGAAGGGAAGGGAAGGGAAGGGGGGGUCACGCGGGGGCGCGCGCGCGCACCGGGAGCGCGCUCGGAGGCGAGUGGAACUGGAUCGGGUUUGCUGCCAGCGGCGUGAGCUUC
As to B8, the Kd in the data set with U(702-777) is 450 ± 160 nM; with U(702-825), 70 ± 19 nM; with U(702-793) it was 180 ± 50 nM; with U(702-761), 1100 ± 400 nM; with U(702-809), 140 ± 50 nM; in the data set with U(702-745) it was 910 ± 150 nM. The Kd in data set [1] was approximately 1000 nM.

B9: MTRNR2L6 sense 75 nt (ssRNA)
RNA: GUGCUAAGACUAAACAAGUUUAAGCGAAUUACUAUACAUAUAUUGACCCAAUAAUUUGAUCAACGGAACAAGUUA
For B9, the “apparent K (half saturation)” value with U-CTD (hnRNP U RBD) was determined as 320 ± 30 nM.

B10: Antisense Syncrip (structured_RNA)
RNA: GAAGCUCACGCCGCUGGCAGCAAACCCGAUCCAGUUCCACUCGCCUCCGAGCGCGCUCCCGGUGCGCGCGCGCGCCCCCGCGUGACCCCCCCUUCCCUUCCCUUCCCUUCCCUCCCCUCCCUC
For the molecule B10, the Kd amounted to 14000 ± 2000 nM with U(702-777), 570 ± 10 nM with U(702-825), 3000 ± 200 nM with U(702-793) and 1600 ± 100 nM with U(702-809).
In data set [1], GAGGGAGGGGAGGGAAGGGAAGGGAAGGGAAGGGGGGGAAACUUC (structured_RNA) [Syncrip G-quad] showed a Kd of approximately 1000 nM.
In the case of GUGCUAAGACUAAACAAGUUUAAGC (ssRNA) [MTRNR2L6 sense 25 nt], in the data set with U-CTD (hnRNP U RBD), the “apparent K (half saturation)” value was found to be 4900 ± 700 nM.

B11: MTRNR2L6 sense 200 nt (ssRNA)
RNA: GUGCUAAGACUAAACAAGUUUAAGCGAAUUACUAUACAUAUAUUGACCCAAUAAUUUGAUCAACGGAACAAGUUACCCUAGGGAUAACAGCGCAAUCCUAUUCUAGAGUCCAUAUUGACAAUAGGGUUUACGACCUCGAUGUUGGAUCAGGACAUCCUAAUGGUGUAGCUGCUAUCAAGGGUUCAUUUGUUCAAUGAUUA
On to B11, for which the “apparent K (half saturation)” value with U-CTD (hnRNP U RBD) is 210 ± 20 nM.

B12: MTRNR2L6 antisense 150 nt (ssRNA)
RNA: GUGAUCCAACAUCGAGGUCGUAAACCCUAUUGUCAAUAUGGACUCUAGAAUAGGAUUGCGCUGUUAUCCCUAGGGUAACUUGUUCCGUUGAUCAAAUUAUUGGGUCAAUAUAUGUAUAGUAAUUCGCUUAAACUUGUUUAGUCUUAGCAC
For the molecule B12, the “apparent K (half saturation)” value with U-CTD (hnRNP U RBD) turned out to be 190 ± 10 nM.

B13: MTRNR2L6 sense 150 nt (ssRNA)
RNA: GUGCUAAGACUAAACAAGUUUAAGCGAAUUACUAUACAUAUAUUGACCCAAUAAUUUGAUCAACGGAACAAGUUACCCUAGGGAUAACAGCGCAAUCCUAUUCUAGAGUCCAUAUUGACAAUAGGGUUUACGACCUCGAUGUUGGAUCAG
For B13, in the data set with U-CTD (hnRNP U RBD), the “apparent K (half saturation)” value was 130 ± 10 nM.

B14: MTRNR2L6 antisense 200 nt (ssRNA)
RNA: GAAUCAUUGAACAAAUGAACCCUUGAUAGCAGCUACACCAUUAGGAUGUCCUGAUCCAACAUCGAGGUCGUAAACCCUAUUGUCAAUAUGGACUCUAGAAUAGGAUUGCGCUGUUAUCCCUAGGGUAACUUGUUCCGUUGAUCAAAUUAUUGGGUCAAUAUAUGUAUAGUAAUUCGCUUAAACUUGUUUAGUCUUAGCAC
B14: the “apparent K (half saturation)” value with U-CTD (hnRNP U RBD) was determined as 230 ± 10 nM.

B15: MTRNR2L6 antisense 250 nt (ssRNA)
RNA: GUGUACCAGACCUGGCUUGCUCCGGUCUGAACUCAGACCACGUAGGACUUUAAUCAUUGAACAAAUGAACCCUUGAUAGCAGCUACACCAUUAGGAUGUCCUGAUCCAACAUCGAGGUCGUAAACCCUAUUGUCAAUAUGGACUCUAGAAUAGGAUUGCGCUGUUAUCCCUAGGGUAACUUGUUCCGUUGAUCAAAUUAUUGGGUCAAUAUAUGUAUAGUAAUUCGCUUAAACUUGUUUAGUCUUAGCAC
Take B15: in the data set with U-CTD (hnRNP U RBD), the “apparent K (half saturation)” value turned out to be 110 ± 10 nM.
On to GCUUAAACUUGUUUAGUCUUAGCAC (ssRNA) [MTRNR2L6 antisense 25 nt], for which, in the data set with U-CTD (hnRNP U RBD), the “apparent K (half saturation)” value amounted to 6000 ± 300 nM.

B16: MTRNR2L6 (structured_RNA)
RNA: GCUAUACAUAUAUUGACCCAAUAAUUUGAUCAACGGAACAAGUUACCCUAGGGAUAACAGCGCAAUCCUAUUCUAGAGUCCAUAUUGACAAUAGGGUUUACGACCUCGAUGUUGGAUCAGGACAUCCUAAUGGUGUAGC
As to B16, the Kd in the data set with U(702-777) came to 4200 ± 500 nM; in the data set with U(702-825), 220 ± 10 nM; with U(702-793), 1100 ± 100 nM; with U(702-809) it was 710 ± 10 nM.
